The supplement of paper PMC6757056
± gives the standard deviation of the averaged measurements.

B1: library; a variant is named by its letters at N, in order (parent)
chain: GCUGUCACCGGUGUAUUACCCUAGUGGUCGACCGGUCUGAUGAGUCUNNNNNNAGACGAAACAGC

How the values were obtained:
hypoxanthine [1] = variants of: B1; experiment: FACS-Seq fitted mean relative fluorescence mCherry/BFP without ligand (log10 relative fluorescence); ligand: hypoxanthine (xanthine aptamer); higher = higher reporter protein expression; details: HEK293T, ligand present: no
In short: (§1)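 To measure fluorescence, a normal distribution was fitted to read counts across sorted bins. The reporter libraries were HEK293T cells transduced by lentivirus with mCherry under ribozyme-switch control and an EF1α-BFP marker, enriched and then kept with or without ligand for 48 h. Sorting used 6 mCherry/BFP bins, and bin genomic DNA was PCR-amplified and sequenced on MiSeq. Fitted means of log10(mCherry/BFP) were scaled to five spiked-in control ribozymes.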

hypoxanthine [2] = variants of: B1; experiment: normalized RNA/DNA level with ligand (relative to sTRSVctl = 100) (log10 (% of sTRSVctl)); ligand: hypoxanthine (xanthine aptamer); higher = less ribozyme self-cleavage, higher mRNA level; details: ligand concentration (+) RNA-Seq: 5 mM, HEK293T, reporter: mCherry (pCS4076), ligand present: yes
Protocol: (§2)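 Hammerhead (sTRSV) ribozyme switch libraries with a ligand aptamer grafted on stem I and a randomized N4-6 loop II, cloned into the 3' UTR of mCherry and transiently transfected into HEK293T cells; RNA-Seq 72 h post transfection with ligand added 1 h before transfection; RNA read count / plasmid DNA read count normalized to the non-cleaving sTRSVctl (x100), log10; sequences with >100 DNA reads. FACS-Seq: lentiviral library sorted into 6 bins after 48 h ligand, log-normal fit mean of mCherry/BFP scaled to controls. Printed sequences are partial switch sequences.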

hypoxanthine [3] = variants of: B1; experiment: normalized RNA/DNA level without ligand (relative to sTRSVctl = 100) (log10 (% of sTRSVctl)); ligand: hypoxanthine (xanthine aptamer); higher = less ribozyme self-cleavage, higher mRNA level; details: HEK293T, reporter: mCherry (pCS4076), ligand present: no
Protocol: as §2

hypoxanthine [4] = variants of: B1; experiment: FACS-Seq fitted mean relative fluorescence mCherry/BFP with ligand (log10 relative fluorescence); ligand: hypoxanthine (xanthine aptamer); ligand concentration (+) FACS-Seq: 5 mM; higher = higher reporter protein expression; details: HEK293T, ligand present: yes
In short: as §1

Variant: UCAAAA
- FACS-Seq fitted mean (log10) (hypoxanthine [1]): 0.491 ± 0.022
- normalized RNA/DNA level with ligand (log10) (hypoxanthine [2]): 1.934 ± 0.013
- normalized RNA/DNA level without ligand (log10) (hypoxanthine [3]): 1.717 ± 0.0054
- FACS-Seq fitted mean (log10) (hypoxanthine [4]): 0.446 ± 0.019

Variant: GAUGCU
- FACS-Seq fitted mean (log10) (hypoxanthine [1]): -0.0807 ± 0.06
- normalized RNA/DNA level with ligand (log10) (hypoxanthine [2]): 1.93 ± 0.063
- normalized RNA/DNA level without ligand (log10) (hypoxanthine [3]): 1.867 ± 0.012
- FACS-Seq fitted mean (log10) (hypoxanthine [4]): 0.0649 ± 0.0092

Variant: GAUGCC
- FACS-Seq fitted mean (log10) (hypoxanthine [1]): 0.537 ± 0.022
- normalized RNA/DNA level with ligand (log10) (hypoxanthine [2]): 1.96 ± 0.024
- normalized RNA/DNA level without ligand (log10) (hypoxanthine [3]): 1.879 ± 0.018
- FACS-Seq fitted mean (log10) (hypoxanthine [4]): 0.5688 ± 0.0033

Variant: GAUGCG
- FACS-Seq fitted mean (log10) (hypoxanthine [1]): 0.0728 ± 0.0046
- normalized RNA/DNA level with ligand (log10) (hypoxanthine [2]): 1.87 ± 0.038
- normalized RNA/DNA level without ligand (log10) (hypoxanthine [3]): 1.498 ± 0.0066
- FACS-Seq fitted mean (log10) (hypoxanthine [4]): 0.5658 ± 0.0024

Variant: GAGUGA
- FACS-Seq fitted mean (log10) (hypoxanthine [1]): 0.22 ± 0.019
- normalized RNA/DNA level with ligand (log10) (hypoxanthine [2]): 1.87 ± 0.066
- normalized RNA/DNA level without ligand (log10) (hypoxanthine [3]): 1.453 ± 0.012
- FACS-Seq fitted mean (log10) (hypoxanthine [4]): 0.468 ± 0.065

Variant: GAGUGG
- FACS-Seq fitted mean (log10) (hypoxanthine [1]): -0.253 ± 0.023
- normalized RNA/DNA level with ligand (log10) (hypoxanthine [2]): 1.59 ± 0.12
- normalized RNA/DNA level without ligand (log10) (hypoxanthine [3]): 1.13 ± 0.067
- FACS-Seq fitted mean (log10) (hypoxanthine [4]): 0.299 ± 0.042

Variant: GAGUGU
- FACS-Seq fitted mean (log10) (hypoxanthine [1]): 0.458 ± 0.014
- normalized RNA/DNA level with ligand (log10) (hypoxanthine [2]): 1.86 ± 0.036
- normalized RNA/DNA level without ligand (log10) (hypoxanthine [3]): 1.6 ± 0.062
- FACS-Seq fitted mean (log10) (hypoxanthine [4]): 0.69 ± 0.053

Variant: GAGUGC
- FACS-Seq fitted mean (log10) (hypoxanthine [1]): 0.0552 ± 0.013
- normalized RNA/DNA level with ligand (log10) (hypoxanthine [2]): 1.876 ± 0.005
- normalized RNA/DNA level without ligand (log10) (hypoxanthine [3]): 1.501 ± 0.013
- FACS-Seq fitted mean (log10) (hypoxanthine [4]): 0.361 ± 0.045

Variant: UAUCAC
- FACS-Seq fitted mean (log10) (hypoxanthine [1]): 0.6449 ± 0.00099
- normalized RNA/DNA level with ligand (log10) (hypoxanthine [2]): 1.909 ± 0.012
- normalized RNA/DNA level without ligand (log10) (hypoxanthine [3]): 1.86 ± 0.04
- FACS-Seq fitted mean (log10) (hypoxanthine [4]): 0.584 ± 0.023

Variant: UAUCAA
- FACS-Seq fitted mean (log10) (hypoxanthine [1]): 0.456 ± 0.02
- normalized RNA/DNA level with ligand (log10) (hypoxanthine [2]): 1.91 ± 0.029
- normalized RNA/DNA level without ligand (log10) (hypoxanthine [3]): 1.81 ± 0.021
- FACS-Seq fitted mean (log10) (hypoxanthine [4]): 0.414 ± 0.055

Variant: CAUACG
- FACS-Seq fitted mean (log10) (hypoxanthine [1]): 0.394 ± 0.013
- normalized RNA/DNA level with ligand (log10) (hypoxanthine [2]): 1.903 ± 0.016
- normalized RNA/DNA level without ligand (log10) (hypoxanthine [3]): 1.88 ± 0.079
- FACS-Seq fitted mean (log10) (hypoxanthine [4]): 0.469 ± 0.045

Variant: AAUAUA
- FACS-Seq fitted mean (log10) (hypoxanthine [1]): 0.619 ± 0.062
- normalized RNA/DNA level with ligand (log10) (hypoxanthine [2]): 1.89 ± 0.024
- normalized RNA/DNA level without ligand (log10) (hypoxanthine [3]): 1.78 ± 0.034
- FACS-Seq fitted mean (log10) (hypoxanthine [4]): 0.599 ± 0.07

Variant: AAUAUG
- FACS-Seq fitted mean (log10) (hypoxanthine [1]): 0.333 ± 0.056
- normalized RNA/DNA level with ligand (log10) (hypoxanthine [2]): 1.84 ± 0.04
- normalized RNA/DNA level without ligand (log10) (hypoxanthine [3]): 1.462 ± 0.014
- FACS-Seq fitted mean (log10) (hypoxanthine [4]): 0.53 ± 0.0062

Variant: CAUAGA
- FACS-Seq fitted mean (log10) (hypoxanthine [1]): 1.171 ± 0.0012
- normalized RNA/DNA level with ligand (log10) (hypoxanthine [2]): 1.931 ± 0.0061
- normalized RNA/DNA level without ligand (log10) (hypoxanthine [3]): 1.767 ± 0.0051
- FACS-Seq fitted mean (log10) (hypoxanthine [4]): 0.849 ± 0.08

Variant: GAUACA
- FACS-Seq fitted mean (log10) (hypoxanthine [1]): 0.774 ± 0.022
- normalized RNA/DNA level with ligand (log10) (hypoxanthine [2]): 1.93 ± 0.095
- normalized RNA/DNA level without ligand (log10) (hypoxanthine [3]): 1.83 ± 0.0097
- FACS-Seq fitted mean (log10) (hypoxanthine [4]): 0.711 ± 0.11

Variant: GAUACG
- FACS-Seq fitted mean (log10) (hypoxanthine [1]): -0.036 ± 0.019
- normalized RNA/DNA level with ligand (log10) (hypoxanthine [2]): 1.87 ± 0.035
- normalized RNA/DNA level without ligand (log10) (hypoxanthine [3]): 1.488 ± 0.0049
- FACS-Seq fitted mean (log10) (hypoxanthine [4]): 0.37 ± 0.033

Variant: UAUGAC
- FACS-Seq fitted mean (log10) (hypoxanthine [1]): 0.282 ± 0.084
- normalized RNA/DNA level with ligand (log10) (hypoxanthine [2]): 1.95 ± 0.047
- normalized RNA/DNA level without ligand (log10) (hypoxanthine [3]): 1.807 ± 0.01
- FACS-Seq fitted mean (log10) (hypoxanthine [4]): 0.457 ± 0.11

Variant: AAUCCG
- FACS-Seq fitted mean (log10) (hypoxanthine [1]): 0.134 ± 0.0095
- normalized RNA/DNA level with ligand (log10) (hypoxanthine [2]): 1.86 ± 0.073
- normalized RNA/DNA level without ligand (log10) (hypoxanthine [3]): 1.423 ± 0.0043
- FACS-Seq fitted mean (log10) (hypoxanthine [4]): 0.584 ± 0.0084
